Patent US20210292393A1 (published 2021)

Columns and labels:
[1] = molecular target: SARS-CoV-2 full length spike protein (wild type) (SARS-CoV-2, UniProt P0DTC2 14-1273)
[2] = molecular target: SARS-CoV-2 full length spike protein, wild type, expressed on the surface of CHO cells (SARS-CoV-2, UniProt P0DTC2 14-1273)

| Binder | median fluorescence intensity, fold over isotype control [1] [fold over isotype] | median fluorescence fold over isotype control [2] [fold over isotype] |
| --- | --- | --- |
| antibody 263 (antibody, V domains shown) VH: EVQLVQSGAEVKKPGATVKISCKVSGYTFTDYYMHWVQQAPGKGLEWMGLVDPEDGETIYAEKFQGRVTITADTSTDTAYMELSSLRSDDTAVYYCTTDLAFTIFGGRRGFDPWGQGTLVTVSS VL: DIQLTQSPSFLSASVGDRVTITCRASQGISSYLAWYQQKPGKAPKLLIYAASTLQSGVPSRFSGSGSGTEFTLTISSLQPEDFATYYCQQLNSYDFGQGTRLEIK | 22.5 | – |
| antibody 537 (antibody, V domains shown) VH: QVQLQQWGAGLLKPSETLSLTCAVYGGSFSGYYWSWIRQPPGKGLEWIGEINHSGSTNYNPSLKSRVTISVDTSKNQFSLKLSSVTAADTAVYYCARGLYYDMGGGFDYWGQGTLVTVSS VL: not shown | – | 4.42 |
| antibody 541 (antibody, V domains shown) VH: QVQLVQSGAEVKKPGASVKVSCKASGYTFTSYYVHWVRQAPGQSLEWMGVISPSTGSTTYAQNFQGRVTMTRDTSTTTVYMELSSLRSEDTAVYYCARDDYYDSTRYFDLWGRGTLVTVSS VL: not shown | – | 1.1 |
| antibody 514 (antibody, V domains shown) VH: EVQLVQSGAEVKKPGATVKISCKVSGYTFTDYYMHWVQQAPGKGLEWMGLVDPEDGETIYAEKFQGRVTITADTSTDTAYMELSSLRSEDTAVYYCATDCKYDILTGHYSAGYYYYGMDVWGQGTTVTVSS VL: DIQMTQSPSSLSASVGDRVTITCRASQGISNYLAWFQQKPGKAPKSLIYAASSLQSGVPSKFSGSGSGTDFTLTISSLQPEDFATYYCQQYNSYPFTFGGGTKVEIK | – | 1.04 |
| antibody 533 (antibody, V domains shown) VH: GVQLVESGGVVVQPGGSLRLSCAASGFSFDDYTMHWVRQAPGKGLEWVSLVSWDGGTTYYTDSVKGRFTISRDNSKNSLYLQMNSLRTEDTALYFCAKDSGRIVPAATFDYWGQGTLVTVSS VL: DIQMTQSSSSLSASVGDRVTITCRASQDISNYLAWFQQKPGKAPKSLIYAASSLQSGVPSKFSGSGSGTDFTLTISSLQPEDFATYYCQQYYTYPLTFGGGTKVEIK | – | 4.31 |
| antibody 273 (antibody, V domains shown) VH: QVQLVQSGAEVKKPGASVKVSCKVSGYTLTELSMHWVRQAPGKGLEWMGGFDPEDGETIYAQKFQGRVTMTEDTSTDTAYMELSSLRSEDTAVYYCATAPGYYDSSAPQPINWFDPWGQGTLVTVSS VL: QSALTQPASVSGSPGQSITISCTGTSSDVGSYNLVSWYQQHPGKAPKLMIYEVSKRPSGVSNRFSGSKSGNTASLTISGLQAEDEADYYCCSYAGSSTLVFGGGTKLTVL | 16.9 | – |
| antibody 527 (antibody, V domains shown) VH: QLQLQESGPGLVKPSETLSLTCTVSGGSISSSSYYWGWIRQPPGKGLEWIGSIYYSGSTYYNPSLKSRVTISVDTSKNQFSLKLSSVTAADTAMYYCASHVVVIASSYWCFDLWGRGTLVTVSS VL: QSALTQPASVSGSPGQSITISCTGTSSDVGGYNYVSWYQQHPGKAPKLMIYDVSNRPSGVSNRFSGSKSGNTASLTISGLQAEDEADYYCSSYTSISTWVFGGGTKLTVL | – | 10.4 |
| antibody 504 (antibody, V domains shown) VH: QVQLVESGGGVVQPGRSLRLSCAASGFTFSSYGMHWVRQAPGKGLEWVAVISYDGSNKYYADSVKGRFTISRDNSKNTLYLQMNSLRAEDTAVYYCAKGGGGGYCSGGSCYSHYFDYWGQGTLVTVSS VL: not shown | – | 2.78 |
| antibody 523 (antibody, V domains shown) VH: EVQLVESGGVSVQPGGSLRLSCAASGFSFNTYDMHWVRQGTGKGLEWVSGIGTAGDTYYSDSVKGRCTISRDNAKNSLHLLVKSVRAADTAVYYCARGVGGIIDYWGQGTLVTVSS VL: NFVLSQPHSVSESPGKTVTISCTGNSGSIATKYVQWFQQRPGSAPTTVIYEDNQRPSGVPDRFSGSSDSSSNSASLTISGLKTEDEAHYYCQSYHNRRWVFGGGTKLTVL | – | 5.18 |
| antibody 516 (antibody, V domains shown) VH: QVELQQWGAGLLKPSETLSLTCAVYGGSFSGYYWSWIRQPPGKGLEWIGEINHSGSTNYNPSLKSRVTISIDTSKNQFSLKLSSVTAADTAVYYCARGTTVTTFFAPHWYFDLWGRGTLVTVSS VL: QSALTQPASVSGSPGQSITISCTGTSSDVGGYNYVSWYQQHPGKAPKLMIYDVSNRPSGVSNRFSGSKSGNTASLTISGLQAEDEADYYCSSYTSSSTPYVFGTGTKVTVL | – | 3.31 |
| antibody 265 (antibody, V domains shown) VH: EVQLVQSGAEVKKPGATVKVSCKFSGDTFSHYYIHWVQQAPGKGLEWMGLVDPQDGESEYAQKFQGKVTITADTSIDTSYLEVTSLRFDDTAFYFCATRGMSGAFDRWGQGTLVTVSS VL: DIVMTQSPDSLAVSLGERATINCKSSQSILSTSNNKNYLAWYQQKPGQPPKLLIYWASTRESGVPDRFSGGGSGTDFTLTISSLQAEDVAVYYCQQYYRTAYTTPIYTFGQGTKLEIK | 21.4 | – |
| antibody 543 (antibody, V domains shown) VH: EVQLVESGGGLVQPGRSLRLSCAASGFTFHDYAMHWVRQAPGKGLEWVSGISWNSGSIGYADSVKGRFTISRDNAKNSLYLQMNSLRAEDTALYYCAKDTFGSSSWYRGDSYYYYGMDVWGQGTTVTVSS VL: QSALTQPASVSGSPGQSITISCTGTSSDVGGYNYVSWYQQHPGKAPKLMIYEVSNRPSGVSNRFSGSKSGNTASLTISGLQAEDEADYYCSSYTSSSTQRYVVFGGGTKLTVL | – | 13.3 |
| antibody 510 (antibody, V domains shown) VH: QVQLQESGPGLVKPSQTLSLTCTVSGGSISSGSYYWSWIRQPAGKGLEWIGRIYTSGSTNYNPSLKSRVTISVDTSKNQFSLKLSSVTAADTAVYYCAREGQWLYRFDYWGQGTLVTVSS VL: QSALTQPASVSGSPGQSITISCTGTSSDVGNYDLVSWYQQHPGKAPKLVIYGVTKRPSGVSNRFSGSKSGNTASLTISGLQAEDEADYYCCSYATGDTSVFGTGTKVTVL | – | 1.18 |
| antibody 546 (antibody, V domains shown) VH: QVQLVESGGGVVQPGRSLRLSCAASGFTFSSYGMHWVRQAPGKGLEWVAVIWYDGSNKYYADSVKGRFTISRDNSKNTLYLQMNSLRAEDTAVYYCARNCGGDCVAGDGFDYWGQGTLVTVSS VL: DIQMTQSPSSLSASVGDRVTITCRASQSISSYLNWYQQKPGKAPNLLIYAASSLQSGVPSRFSGSGSGTDFTLTISSLQPEDFATYYCQQSYSALTWTFGQGTKVEIK | – | 19.3 |
| antibody 536 (antibody, V domains shown) VH: QVQLVESGGGVVQPGRSLRLSCAASGFTFSSYVMHWVRQAPGKGLEWVALISYDGSNKYYADSVKGRFTISRDNSKNTLYLQMNSLRAEDTAVYYCARGGHIRVGRYFDWLISYFDYWGQGTLVTVSS VL: not shown | – | 2.36 |
| antibody 522 (antibody, V domains shown) VH: EVQLVESGGGLVQPGGSLRLSCAASGFNFSSYSMNWVRQAPGKGLEWVSYISSSSSTIYYADSVKGRFTISRDNAKNSLYLQMNSLRDEDTAVYYCARGPEWDIVVVQAENWFDPWGQGTLVTVSS VL: SYELTQPPSVSVSPGQTARITCSGDALPKQYVYWYQQKPGQAPVLVIYKDSERPSGIPERFSGSSSGTTVTLTISGVQAEDEADYYCQSADSSGTYRGVFGGGTKLTVL | – | 9.18 |
| antibody 264 (antibody, V domains shown) VH: QVHLVESGGGVVQPGRSLRLSCAASGFTLTSYAMHWVRQAPGKGLEWVALISYDGSVKKYAESVKGRITVSGDNSRNTLHLQINTLRADDTAVYYCVRGGVSGPNSFDLWGQGTMVTVSS VL: DVVMTQSPLSLPVTLGQPASISCRSSQSLEYSDGNTYVNWFQQRPGQSPRRLIYQVSNRASGVPDRFSGSGSGTDFTLQISRVEAEDVGIYYCMQGTHWPVTFGQGTKVEIK | 10.3 | – |
| antibody 509 (antibody, V domains shown) VH: QVQLVESGGGVVQPGRSLRLSCAASGFNLSSYAMHWVRQASGKGLEWVSLISYDGSIKYYTDSVKGRFTVSGDNSKNTLFLQMNSLRADDSALYYCVRGGVSGPNSFDLWGQGTTVTVSS VL: DVVMTQSPLSLPVTLGQPASISCRSSQSLVYSDGNTYVNWFQQRPGQSPRRLIYKVSIRASGVPDRFSGSGSGTDFALKISRVEAEDVGVYYCMQGTHWPVTFGQGTKVEIK | – | 10.2 |
| antibody 517 (antibody, V domains shown) VH: QVQLVESGGGVVQPGRSLRLSCAASGFNLSNYAMHWVRQASGKGLEWVSLISYDGSIKYYTDSVKGRFTVSGDNSKNTLFLQMNSLRADDSALYYCVRGGVSGPNSFDMWGQGTTVTVSS VL: DVVMTQSPLSLPVTLGQPASISCRSSQSLVYSDGNTYVNWFQQRPGQSPRRLIYQVSIRASGVPDRFSGSGSGTDFALKISRVEAEDVGVYYCMQGTHWPVTFGQGTKVEIK | – | 10.3 |
| antibody 303 (antibody, V domains shown) VH: QVQLVESGGGVVQPGRSLRLSCAASGFNLSSYAMHWVRQASGKGLEWVSLISYDGSIKYYADSVKGRFTVSGDNSKNMLFLQMNSLRADDSALYYCVRGGVSGPNAFDIWGQGTTVTVSS VL: not shown | 9.59 | – |
| antibody 316 (antibody, V domains shown) VH: QVHLVESGGGVVQPGRSLRLSCAASGFTLTAYAMHWVRQAPGKRLEWVALISYDGSVKKYADSVKGRITVSGDTSTNTLHLQMNSLRADDTAVYYCVRGGVSGPNSFDLWGQGTMVTVSS VL: DVVMTQSPLSLPVTLGQPASMSCRSSQSLEYSDGNTYVNWFHQRPGQSPRRLIYKVSYRDSGVPDRFSGSGSGTDFTLQISRVEAEDVGIYYCMQGTHWPVTFGQGTKVEIK | 10.7 | – |
| antibody 266 (antibody, V domains shown) VH: QVQLVESGGGVVQPGRSLRLSCAASGFNLSNYAMHWVRQPSGKGLEWVSLISYDGSIKYYTDSVKGRFTVSGDNSKNTLFLQMNSLRPDDSALYYCVRGGVSGPNSFDMWGQGTTVTVSS VL: DVVMTQSPLSLPVTLGQPASISCRSSQSLVYSDGNTYVNWFQQRPGQSPRRLIYQVSIRASGVPDRFSGSGSGTDFALKISRVEAEDVGVYYCMQGTHWPVTFGQGTKVEIK | 10.3 | – |
